Assay results reported in the supplement of paper PMC9112550, “Optimization of the antimicrobial peptide Bac7 by deep mutational scanning” (BMC Biology, 2022).

test system: Escherichia coli TOP10; test: shrunken log2 fold change of peptide-encoding DNA abundance (4.5 h post-induction vs induction); higher = less antimicrobial activity (less host growth inhibition); conditions: time post-induction: 4.5 h; library: site-saturation at positions 5, 18, 19, 20
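Note: peptides expressed intracellularly from a pBAD plasmid library in pooled LB shake-flask culture, induced with 0.3% L-arabinose, DNA abundance read by NGS, three biological replicates, DESeq2 with apeglm shrinkage.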

Row | Sequence | shrunken log2 fold change
1 | RRIRMRPPRLPRPRPRPRGSPRP | 0.631
2 | RRIRWRPPRLPRPRPRPPGEPRP | 0.625
3 | RRIRSRPPRLPRPRPRPPQMPRP | 0.154
4 | RRIRWRPPRLPRPRPRPCQTPRP | -0.0122
5 | RRIRYRPPRLPRPRPRPVAGPRP | -0.0147
6 | RRIRTRPPRLPRPRPRPPDMPRP | -0.142
7 | RRIRGRPPRLPRPRPRPCMEPRP | 0.831
8 | RRIRARPPRLPRPRPRPNEQPRP | 0.234
9 | RRIRQRPPRLPRPRPRPGGCPRP | 0.546
10 | RRIRVRPPRLPRPRPRPKLLPRP | -0.0409
11 | RRIRYRPPRLPRPRPRPKSRPRP | -0.552
12 | RRIRHRPPRLPRPRPRPDLFPRP | -0.00544
13 | RRIRPRPPRLPRPRPRPYTMPRP | 0.0535
14 | RRIRFRPPRLPRPRPRPSIMPRP | -0.65
15 | RRIRLRPPRLPRPRPRPRKYPRP | -0.882
16 | RRIRRRPPRLPRPRPRPRAIPRP | 0.405
17 | RRIRNRPPRLPRPRPRPDPSPRP | 0.152
18 | RRIRMRPPRLPRPRPRPMPWPRP | 0.169
19 | RRIRFRPPRLPRPRPRPDICPRP | -0.0857
20 | RRIRIRPPRLPRPRPRPTHIPRP | -0.495
21 | RRIRQRPPRLPRPRPRPPPSPRP | 0.731
22 | RRIRQRPPRLPRPRPRPEWEPRP | 0.00902
23 | RRIRFRPPRLPRPRPRPQQTPRP | -0.0409
24 | RRIRCRPPRLPRPRPRPVHTPRP | 0.101
25 | RRIRARPPRLPRPRPRPSRSPRP | 0.349

Row | Sequence | shrunken log2 fold change
26 | RRIRTRPPRLPRPRPRPESAPRP | 0.0458
27 | RRIRTRPPRLPRPRPRPPEWPRP | 0.442
28 | RRIRERPPRLPRPRPRPKLTPRP | 0.21
29 | RRIRPRPPRLPRPRPRPMSNPRP | -0.127
30 | RRIRHRPPRLPRPRPRPHDHPRP | -1.24
31 | RRIRSRPPRLPRPRPRPMMTPRP | -0.0968
32 | RRIRRRPPRLPRPRPRPAANPRP | 3
33 | RRIRLRPPRLPRPRPRPWNWPRP | 0.0524
34 | RRIRTRPPRLPRPRPRPEAEPRP | 0.0438
35 | RRIRARPPRLPRPRPRPKARPRP | 1.16
36 | RRIRQRPPRLPRPRPRPRSWPRP | 0.681
37 | RRIRLRPPRLPRPRPRPCRWPRP | 0.252
38 | RRIRWRPPRLPRPRPRPESDPRP | 0.59
39 | RRIRGRPPRLPRPRPRPVFWPRP | 0.768
40 | RRIRPRPPRLPRPRPRPDHMPRP | -0.33
41 | RRIRHRPPRLPRPRPRPTDKPRP | -0.185
42 | RRIRWRPPRLPRPRPRPVGKPRP | 0.107
43 | RRIRERPPRLPRPRPRPSITPRP | -1.36
44 | RRIRMRPPRLPRPRPRPDIQPRP | 0.118
45 | RRIRDRPPRLPRPRPRPDKCPRP | 0.089
46 | RRIRWRPPRLPRPRPRPRRGPRP | 0.528
47 | RRIRCRPPRLPRPRPRPNCGPRP | -0.281
48 | RRIRMRPPRLPRPRPRPSYKPRP | -0.296
49 | RRIRFRPPRLPRPRPRPHGQPRP | -0.0526
50 | RRIRKRPPRLPRPRPRPCWGPRP | 0.0634

Row | Sequence | shrunken log2 fold change
51 | RRIRDRPPRLPRPRPRPCPTPRP | 0.131
52 | RRIRWRPPRLPRPRPRPYHGPRP | -0.327
53 | RRIRWRPPRLPRPRPRPLGMPRP | -0.156
54 | RRIRYRPPRLPRPRPRPNYMPRP | -0.357
55 | RRIRWRPPRLPRPRPRPEIEPRP | 0.193
56 | RRIRPRPPRLPRPRPRPKLGPRP | 0.551
57 | RRIRFRPPRLPRPRPRPWSNPRP | -0.0867
58 | RRIRGRPPRLPRPRPRPEYMPRP | 0.409
59 | RRIRMRPPRLPRPRPRPYQDPRP | 0.0259
60 | RRIRIRPPRLPRPRPRPVVTPRP | -0.408
61 | RRIRQRPPRLPRPRPRPRLFPRP | 0.701
62 | RRIRVRPPRLPRPRPRPNSDPRP | -0.429
63 | RRIRGRPPRLPRPRPRPDEPPRP | 1.37
64 | RRIRSRPPRLPRPRPRPKVCPRP | 0.00182
65 | RRIRIRPPRLPRPRPRPTEQPRP | -0.348
66 | RRIRDRPPRLPRPRPRPFNRPRP | 0.00902
67 | RRIRTRPPRLPRPRPRPVGFPRP | -0.225
68 | RRIRSRPPRLPRPRPRPMRKPRP | 0.853
69 | RRIRTRPPRLPRPRPRPNCVPRP | 0.00481
70 | RRIRNRPPRLPRPRPRPCKEPRP | -0.451
71 | RRIRPRPPRLPRPRPRPQQIPRP | -0.124
72 | RRIRERPPRLPRPRPRPCAPPRP | -0.215
73 | RRIRERPPRLPRPRPRPSRSPRP | 0.116
74 | RRIRRRPPRLPRPRPRPFKIPRP | -0.00337
75 | RRIRARPPRLPRPRPRPCDNPRP | -0.273
